Target: BD1-EGFP-HOTag6 (UniProt O60885 44-168)
Test: cell-based or functional assay

B1: CRBN-EGFP-HOTag3 (other, not shown: large carriers)
chain: MAGEGDQQDAAHNMGNHLPLLPAESEEEDEMEVEDQDSKEAKKPNIINFDTSLPTSHTYLGADMEEFHGRTLHDDDSCQVIPVLPQVMMILIPGQTLPLQLFHPQEVSMVRNLIQKDRTFAVLAYSNVQEREAQFGTTAEIYAYREEQDFGIEIVKVKAIGRQRFKVLELRTQSDGIQQAKVQILPECVLPSTMSAVQLESLNKCQIFPSKPVSREDQCSYKWWQKYQKRKFHCANLTSWPRWLYSLYDAETLMDRIKKQLREWDENLKDDSLPSNPIDFSYRVAACLPIDDVLRIQLLKIGSAIQRLRCELDIMNKCTSLCCKQCQETEITTKNEIFSLSLCGPMAAYVNPHGYVHETLTVYKACNLNLIGRPSTEHSWFPGYAWTVAQCKICASHIGWKFTATKKDMSPQKFWGLTRSALLPTIPDTEDEISPDKVILCLGEIAKSLKEIAKSLKEIAWSLKEIAKSLKG
- brightness of the EGFP droplets after ARV-825: 10 fold
